Assay results: EP4796130A1, “ANTI-TISSUE FACTOR ANTIBODY-DRUG CONJUGATE COMPRISING CAMPTOTHECIN DERIVATIVE” (Celltrion, Inc., priority 2023, dated 2025)

Test system: HPAFII (human pancreatic cancer xenograft model)
Test: In vivo antitumor efficacy, HPAFII xenograft model
Design: species or system CB17 SCID mice
Conditions: 3 mg/kg i.v. QW × 3

B1: Isotype-MMAE: ADC in which anti-influenza A antibody (Navivumab, P23) is conjugated with MMAE (MC-vc-PAB-MMAE); DAR 4 (conjugate, chains of the INN, looked up)
VH: QVQLVQSGAEVKKPGASVKVSCKTSGYSFSTYGVSWVRQAPGQGPEWVGWISAYTGITDYAQKFQGRVTLTTDATTATAFLDLRSLRPDDTATYFCARDKVQGRVEVGSGGRHDYWGQGTLVIVSS
VL: EVVLTQSPGTLALPPGERATLSCRASHRVGSTYIAWYQQKSGQAPRRLIYGASNRATDIPDRFSGSGSGTDFTLTIRRLEPEDSAVYYCQQFSVSPWTFGQGTRVEIK
modifications: mc-vc-PAB-MMAE payload, DAR 4
Day 0, mean ± SEM
  Tumor Volume: 235 ± 17 mm^3
Day 4, mean ± SEM
  Tumor Volume: 357 ± 38 mm^3
Day 7, mean ± SEM
  Tumor Volume: 424 ± 46 mm^3
Day 11, mean ± SEM
  Tumor Volume: 603 ± 79 mm^3
Day 14, mean ± SEM
  Tumor Volume: 799 ± 98 mm^3
Day 28, mean ± SEM
  Tumor Volume: 2,142 ± 164 mm^3
Day 28 vs control group G1
  T/Cweight: 90.45%
  TGI: 10.01%
Mean ± SEM
  Tumor Weights on Day 28: 1.933 ± 0.177 g
Tumor volume on day 28 vs control group G1
  T/C: 90.99%
